Source: patent US20160185837A1 (Medimmune Limited, priority 2013, published 2016)
Ends that are not written are not given here.

Assays:
Assay type in all cases: cell-based
[1] = biological target: T1, human GLP-1 receptor (hGLP-1r) (Homo sapiens, UniProt P43220); assay: BSA-cAMP assay, cells expressing human GLP-1 receptor; details: BSA-cAMP assay; batch 1 unless a batch is given; read-out: cAMP activity hGLP1r (EC50)
T1 construct: expressed in transfected cells
Method: (§1) One basic cAMP assays was performed, differing in the medium used for the assay, the “BSA-cAMP assay”:
(§2) BSA-based assay medium: 0.1% bovine serum albumin (BSA) in
(§3) In certain aspects, the assay can also be carried out in medium supplemented with serum albumin that corresponds to the receptor being tested, e.g., human serum albumin for testing cAMP activity at hGIPr or hGLP-1r, rat serum albumin for testing cAMP activity at rGIPr or rGLP-1r, and so on. […] All sample dilutions were made in duplicate.
(§4) A frozen cryo-vial of cells expressing the receptor of interest was thawed rapidly in a water-bath, transferred to pre-warmed assay media and spun at 240×g for 5 minutes. Cells were re-suspended in assay buffer at an optimized concentration (e.g., hGLP-1r and hGIPr cells at 0.5×10^5 cells/ml).
(§5) To this, 5 μL cell suspension was added and the plates incubated at room temperature for 30 minutes.
(§6) cAMP levels were measured using a commercially available cAMP dynamic 2 HTRF kit (Cisbio, Cat #62AM4PEJ), following the two step protocol as per manufacturer's recommendations. In brief; anti-cAMP cryptate (donor fluorophore) and cAMP-d2 (acceptor fluorophore) were made up separately by diluting each 1/20 in conjugate & lysis buffer provided in the kit. 5 μL anti-cAMP cryptate was added to all wells of the assay plate, and 5 μL cAMP-d2 added to all wells except non-specific binding (NSB) wells, to which conjugate and lysis buffer was added. […] Data was transformed to % Delta F as described in manufacturer's guidelines and then transformed to percent activation of maximal native agonist response and analysed by 4-parameter logistic fit to determine EC50 values.
(§7) We used unconstrained 4 parameter logistic fit of data, curve mid-point to determine EC50. This was tested on two occasions, not two batches.

[2] = biological target: T2, human GIP receptor (hGIPr) (Homo sapiens, UniProt P48546); assay: BSA-cAMP assay, cells expressing human GIP receptor; details: BSA-cAMP assay; batch 1 unless a batch is given; read-out: cAMP activity hGIPr (EC50)
T2 construct: expressed in transfected cells
T2 sequence (P48546 22-466): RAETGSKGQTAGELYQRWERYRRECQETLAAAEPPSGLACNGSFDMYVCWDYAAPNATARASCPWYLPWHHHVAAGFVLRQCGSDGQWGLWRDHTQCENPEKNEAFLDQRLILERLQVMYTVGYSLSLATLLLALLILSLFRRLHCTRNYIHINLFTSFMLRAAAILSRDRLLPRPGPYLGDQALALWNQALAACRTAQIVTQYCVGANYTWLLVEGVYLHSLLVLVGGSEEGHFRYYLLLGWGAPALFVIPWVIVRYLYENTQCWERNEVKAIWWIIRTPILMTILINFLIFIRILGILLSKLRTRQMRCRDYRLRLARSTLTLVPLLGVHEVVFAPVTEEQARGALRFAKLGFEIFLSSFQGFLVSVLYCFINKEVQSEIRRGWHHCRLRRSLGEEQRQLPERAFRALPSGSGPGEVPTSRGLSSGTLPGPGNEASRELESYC
Method: For human GIPr, two different lines were used, shown as “hGIPr” and “hGIPr (C3)” in Table 11.
as §1, §2, §3, §4, §5, §6, §7

[3] = biological target: T3, human glucagon receptor (GCGr) (Homo sapiens, UniProt P47871); assay: BSA-cAMP assay, cells expressing human glucagon receptor; details: batch 1 unless a batch is given, read-out: cAMP activity hGCGr (EC50)
T3 construct: expressed in transfected cells; host or cells: HEK293s or CHO cells
Method: as §1, §2, §3, §4, §5, §6, §7

[4] = biological target: T4, mouse GLP-1 receptor (mGLP-1r) (Mus musculus, UniProt O35659); assay: BSA-cAMP assay, cells expressing mouse GLP-1 receptor; details: BSA-cAMP assay; read-out: cAMP activity mGLP1r (EC50)
T4 construct: expressed in transfected cells; host or cells: HEK293s or CHO cells
T4 sequence (O35659 22-463): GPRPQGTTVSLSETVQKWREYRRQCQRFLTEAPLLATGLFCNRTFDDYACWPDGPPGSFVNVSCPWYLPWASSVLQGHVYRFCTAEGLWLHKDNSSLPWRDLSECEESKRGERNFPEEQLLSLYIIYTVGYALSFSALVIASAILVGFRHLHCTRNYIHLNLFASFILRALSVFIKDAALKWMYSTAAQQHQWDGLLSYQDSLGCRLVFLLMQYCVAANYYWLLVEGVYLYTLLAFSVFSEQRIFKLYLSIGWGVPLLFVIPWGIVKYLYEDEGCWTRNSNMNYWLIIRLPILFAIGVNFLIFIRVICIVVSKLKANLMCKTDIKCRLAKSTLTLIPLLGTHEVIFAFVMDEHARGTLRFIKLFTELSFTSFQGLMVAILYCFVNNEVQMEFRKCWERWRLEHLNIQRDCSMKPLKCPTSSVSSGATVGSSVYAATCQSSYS
Method: as §1, §2, §3, §4, §5, §6, §7
(§8) In order to be able to carry out in vivo studies in rodents, IP088 was tested for potency against the mouse receptors mGIPr and mGLP-1r as well as the rat receptors rGIPr and rGLP-1r, using cells expressing the respective receptors in the cAMP assay described above.

[5] = biological target: T5, mouse GIP receptor (mGIPr) (Mus musculus, UniProt Q0P543); assay: BSA-cAMP assay, cells expressing mouse GIP receptor; details: BSA-cAMP assay; read-out: cAMP activity mGIPr (EC50)
T5 construct: expressed in transfected cells; host or cells: HEK293s or CHO cells
T5 sequence (Q0P543 19-460): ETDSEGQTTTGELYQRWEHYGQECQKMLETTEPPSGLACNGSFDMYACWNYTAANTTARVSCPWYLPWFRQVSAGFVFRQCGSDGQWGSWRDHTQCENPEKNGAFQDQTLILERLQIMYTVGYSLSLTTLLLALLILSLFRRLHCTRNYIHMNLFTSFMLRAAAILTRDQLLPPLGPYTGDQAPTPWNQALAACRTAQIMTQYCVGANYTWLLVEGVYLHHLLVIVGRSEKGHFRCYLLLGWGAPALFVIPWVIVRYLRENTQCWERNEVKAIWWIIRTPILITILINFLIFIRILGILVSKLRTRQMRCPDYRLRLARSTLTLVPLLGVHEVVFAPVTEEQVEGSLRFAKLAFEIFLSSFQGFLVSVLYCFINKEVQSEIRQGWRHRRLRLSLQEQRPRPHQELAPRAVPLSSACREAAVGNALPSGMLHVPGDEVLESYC
Method: as §1, §2, §3, §4, §5, §6, §7, §8

[6] = biological target: T6, rat GLP-1 receptor (rGLP-1r) (Rattus norvegicus, UniProt P32301); assay: BSA-cAMP assay, cells expressing rat GLP-1 receptor; details: BSA-cAMP assay; read-out: cAMP activity rGLP1r (EC50)
T6 construct: expressed in transfected cells; host or cells: HEK293s or CHO cells
T6 sequence (P32301 22-463): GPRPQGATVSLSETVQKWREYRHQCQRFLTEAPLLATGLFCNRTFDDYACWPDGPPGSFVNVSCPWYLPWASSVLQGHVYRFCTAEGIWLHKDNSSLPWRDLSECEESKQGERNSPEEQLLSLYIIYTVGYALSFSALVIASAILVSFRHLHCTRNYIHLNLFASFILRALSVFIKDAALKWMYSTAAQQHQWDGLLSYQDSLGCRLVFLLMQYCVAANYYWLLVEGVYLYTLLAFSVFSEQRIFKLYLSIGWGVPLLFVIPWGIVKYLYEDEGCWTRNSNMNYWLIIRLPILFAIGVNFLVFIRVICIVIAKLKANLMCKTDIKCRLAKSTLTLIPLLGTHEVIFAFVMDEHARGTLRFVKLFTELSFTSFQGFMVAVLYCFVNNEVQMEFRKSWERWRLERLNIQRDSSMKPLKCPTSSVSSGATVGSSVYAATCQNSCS
Method: as §1, §2, §3, §4, §5, §6, §7, §8

rat GIP receptor (rGIPr) = biological target: T7, rat GIP receptor (rGIPr) (Rattus norvegicus, UniProt P43219); assay: BSA-cAMP assay, cells expressing rat GIP receptor; details: BSA-cAMP assay; read-out: cAMP activity rGIPr (EC50)
T7 construct: expressed in transfected cells; host or cells: HEK293s or CHO cells
T7 sequence (P43219 19-455): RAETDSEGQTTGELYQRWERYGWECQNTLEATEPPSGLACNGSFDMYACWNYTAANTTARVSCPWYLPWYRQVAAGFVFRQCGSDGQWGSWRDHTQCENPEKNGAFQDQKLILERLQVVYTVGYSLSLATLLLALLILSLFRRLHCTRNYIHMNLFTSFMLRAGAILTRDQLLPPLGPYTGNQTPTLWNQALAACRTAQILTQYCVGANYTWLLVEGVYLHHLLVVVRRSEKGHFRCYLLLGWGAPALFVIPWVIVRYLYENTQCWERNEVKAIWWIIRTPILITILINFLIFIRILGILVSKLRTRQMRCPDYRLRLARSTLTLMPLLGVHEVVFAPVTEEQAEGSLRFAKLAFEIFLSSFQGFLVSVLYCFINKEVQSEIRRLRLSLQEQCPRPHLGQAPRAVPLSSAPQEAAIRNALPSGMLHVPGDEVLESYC
Method: as §1, §2, §3, §4, §5, §6, §7, §8

T3 sequence (P47871 26-477): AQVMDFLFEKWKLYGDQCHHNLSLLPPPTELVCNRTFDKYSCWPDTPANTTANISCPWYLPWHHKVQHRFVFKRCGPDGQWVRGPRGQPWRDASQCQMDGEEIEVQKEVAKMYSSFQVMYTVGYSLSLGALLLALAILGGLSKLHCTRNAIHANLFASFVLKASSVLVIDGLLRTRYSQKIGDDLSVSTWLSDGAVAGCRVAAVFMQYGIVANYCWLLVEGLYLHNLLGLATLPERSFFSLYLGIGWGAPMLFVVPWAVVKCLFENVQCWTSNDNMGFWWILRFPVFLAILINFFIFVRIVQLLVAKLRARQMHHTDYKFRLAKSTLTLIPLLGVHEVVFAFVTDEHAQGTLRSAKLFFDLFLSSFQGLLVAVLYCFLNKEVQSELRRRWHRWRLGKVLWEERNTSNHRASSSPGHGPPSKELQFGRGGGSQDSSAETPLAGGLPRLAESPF
T1 sequence (P43220 24-463): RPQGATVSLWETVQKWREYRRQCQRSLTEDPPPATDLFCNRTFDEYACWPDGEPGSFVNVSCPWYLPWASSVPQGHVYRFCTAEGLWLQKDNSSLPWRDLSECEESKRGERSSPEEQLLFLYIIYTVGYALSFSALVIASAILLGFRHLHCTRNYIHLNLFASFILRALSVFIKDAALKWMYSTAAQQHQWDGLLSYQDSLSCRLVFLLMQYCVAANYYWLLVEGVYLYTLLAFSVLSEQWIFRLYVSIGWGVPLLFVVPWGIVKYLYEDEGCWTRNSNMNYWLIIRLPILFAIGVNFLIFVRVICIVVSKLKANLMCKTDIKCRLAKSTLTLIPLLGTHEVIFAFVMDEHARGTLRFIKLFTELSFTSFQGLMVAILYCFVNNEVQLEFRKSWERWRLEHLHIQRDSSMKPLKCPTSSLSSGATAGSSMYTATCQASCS

## IP193 (HGEGTFTSDVSSYLEGQAAKEFIAWLVKGAAAGGSGSTASSGSGSATGGGGCPPCPAPEF; also: forms dimer via hinge disulfides)
[1]
  EC50: 0.064 nM
[2]
  EC50: 450 nM
[3]
  EC50: 780 nM

## IP196 (HGEGTFTSDVSSYLEGQAAKEFIAWLVKGAAAGGSGSTASSGSGSATGGGGAPEF; /note=“Description of Artificial Sequence Synthetic Peptide-linker-hinge polypeptide”)
[1]
  EC50: 0.073 nM

## IP231 (HGEGTFTSDVSSYLEEQAAKEFIAWLVKGGGGGGSGGGGSGGGGSGGGGSATHTCPPC; also: forms dimer via hinge disulfides)
[1]
  EC50: 0.067 nM

## IP238 (HGEGTFTSDVSSYLEGQAAKEFIAWLVKGGGGGGSGGGGSGGGGSAESKYGPPCPPC; also: forms dimer via hinge disulfides)
[1]
  EC50: 0.058 nM
[2]
  EC50: 310 nM

## IP275: Fc fusion, IgG1-TM, SEQ ID NO:332; agonist peptide YSEGTFTSDYSKLLEKEAQRLFIEWLLKGP (YSEGTFTSDYSKLLEKEAQRLFIEWLLKGPGGGGGSGGGGSGGGGSGGGGSATHTCPPC)
[1]
  EC50: 0.92 nM
[2]
  EC50: 0.0087 nM
[3]
  EC50: 230 nM
[4]
  EC50: 1.7 nM
[5]
  EC50: 0.26 nM
[6]
  EC50: 0.062 nM
Rat GIP receptor (rGIPr)
  EC50: 0.014 nM

## IP289: Fc fusion, IgG1-TM(ΔK), SEQ ID NO:342; agonist peptide YSEGTFTSDYSKLLEKEAERLFIEWLLKGP (YSEGTFTSDYSKLLEKEAERLFIEWLLKGPGGGGGSGGGGSGGGGSGGGGSATHTCPPC)
[1]
  EC50: 3.4 nM
[2]
  EC50: 0.01 nM
[3]
  EC50: 240 nM
[4]
  EC50: 6.8 nM
[5]
  EC50: 0.44 nM
[6]
  EC50: 0.23 nM
Rat GIP receptor (rGIPr)
  EC50: 0.02 nM
